This passage reports Kd results from patent US20240301429A1.

Sequences and labels used below:
B1: NRP1 trap M (receptor)
chain: FRNDKCGDTIKIESPGYLTSPGYPHSYHPSEKCEWLIQAPDPYQRIMINFNPHFDLEDRDCKYDYVEVFDGENENGHFRGKFCGKIAPPPVVSSGPFLFIKFVSDYETHGAGFSIRYELFKRGPECSQNYTTPSGVIKSPGFPEKYPNSLECTYIVFAPKMSEIILEFESFDLEPDSNPPGGMFCRYDRLEIWDGFPDVGPHIGRYCGQKTPGRIRSSSGILSMVFYTDSAIAKEGFSANYSVLQSSVSEDFKCMEALGMESGEIHSDQITASSQYSTNWSAERSRLNYPENGWTPGEDSYREWIQVDLGLLRFVTAVGTQGAISKETKKKYYVKTYKIDVSSNGEDWITIKEGNKPVLFQGNTNPTDVVVAVFPKPLITRFVRIKPATWETGISMRFEVYGCRSGSKENLYFQG
B2: NRP1 trap Z (receptor)
chain: FRNDKCGDTIKIESPGYLTSPGYPHSYHPSEKCEWLIQAPDPYQRIMINFNPHFDLEDRDCKYDYVEVFDGENENGHFRGKFCGKIAPPPVVSSGPFLFIKFVSDYETHGAGFSIRYELFKRGPECSQNYTTPSGVIKSPGFPEKYPNSLECTYIVFAPKMSEIILEFESFDLEPDSNPPGGMFCRYDRLEIWDGFPDVGPHIGRYCGQKTPGRIRSSSGILSMVFYTDSAIAKEGFSANYSVLQSSVSEDFKCMEALGMESGEIHSDQITASSQYSTNWSAERSRLNYPENGWTPGKKSYREWIQVDLGLLRFVTAVGTQGAISKETKKKYYVKTYKIDVSSNGEDWITIKEGNKPVLFQGNTNPTDVVVAVFPKPLITRFVRIKPATWETGISMRFEVYGCKITDYPCSGMLGMVSGLISDSQITSSNQGDRNWMPENIRLVTSRSGWALPPAPHSYINEWLQIDLGEEKIVRGIIIQGGKHRENKVFMRKFKIGYSNNGSDWKMIMDDSKRKAKSFEGNNNYDTPELRTFPALSTRFIRIYPERATHGGLGLRMELLGCEVEAPTAGPTTPNGNLVDECDDDQANCHSGTGDDFQLTGGTTVLATEKPTVIDSTIQSEFPTYGFNCEFGWGSHKTFCHWEHDNHVQLKWSVLTSKTGPIQDHTGDGNFIYSQADENQKGKVARLVSPVVYSQNSAHCMTFWYHMSGSHVGTLRVKLRYQKPEEYDQLVWMAIGHQGDHWKEGRVLLHKSLKLYQVIFEGEIGKGNLGGIAVDDISINNHISQEDCAKPADLDKKNPEIKIDETGSTPGYEGEGEGDKNISRKPGNVLKTLDPRSGSKENLYFQG
B3: NRP1 trap AB (receptor)
chain: FRNDKCGDTIKIESPGYLTSPGYPHSYHPSEKCEWLIQAPDPYQRIMINFNPHFDLEDRDCKYDYVEVFDGENENGHFRGKFCGKIAPPPVVSSGPFLFIKFVSDYETHGAGFSIRYELFKRGPECSQNYTTPSGVIKSPGFPEKYPNSLECTYIVFAPKMSEIILEFESFDLEPDSNPPGGMFCRYDRLEIWDGFPDVGPHIGRYCGQKTPGRIRSSSGILSMVFYTDSAIAKEGFSANYSVLQSSVSEDFKCMEALGMESGEIHSDQITASSQYSTNWSAERSRLNYPENGWTPGEDSYREWIQVDLGLLRFVTAVGTQGAIAKKTKKKYYVKTYKIDVSSNGEDWITIKEGNKPVLFQGNTNPTDVVVAVFPKPLITRFVRIKPATWETGISMRFEVYGCKITDYPCSGMLGMVSGLISDSQITSSNQGDRNWMPENIRLVTSRSGWALPPAPHSYINEWLQIDLGEEKIVRGIIIQGGKHRENKVFMRKFKIGYSNNGSDWKMIMDDSKRKAKSFEGNNNYDTPELRTFPALSTRFIRIYPERATHGGLGLRMELLGCEVEAPTAGPTTPNGNLVDECDDDQANCHSGTGDDFQLTGGTTVLATEKPTVIDSTIQSEFPTYGFNCEFGWGSHKTFCHWEHDNHVQLKWSVLTSKTGPIQDHTGDGNFIYSQADENQKGKVARLVSPVVYSQNSAHCMTFWYHMSGSHVGTLRVKLRYQKPEEYDQLVWMAIGHQGDHWKEGRVLLHKSLKLYQVIFEGEIGKGNLGGIAVDDISINNHISQEDCAKPADLDKKNPEIKIDETGSTPGYEGEGEGDKNISRKPGNVLKTLDPRSGSKENLYFQG

In the assay the target is AP-VEGF165 (human) (UniProt P15692). Put plainly: saturation binding, trap coated on plate, AP-VEGF165 titrated, AP chemiluminescence.
AP-VEGF165 (human), sequence (P15692 other isoform, or with tags, fused parts or gaps): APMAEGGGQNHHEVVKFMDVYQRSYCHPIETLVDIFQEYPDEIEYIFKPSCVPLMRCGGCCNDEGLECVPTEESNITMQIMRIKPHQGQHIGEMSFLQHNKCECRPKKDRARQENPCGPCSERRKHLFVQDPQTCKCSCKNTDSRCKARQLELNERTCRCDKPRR
As usually defined, the Kd is a measure of binding affinity in units of concentration. A low value points to higher affinity. B1 registered a dissociation constant Kd of 20.1 nM.
In turn, B2 had a dissociation constant (Kd) of 67 nM.
The figure for B3 is 29.5 nM.
